The target of one data set is T1, human Topoisomerase I (human, UniProt P11387 1-765).
T1 sequence: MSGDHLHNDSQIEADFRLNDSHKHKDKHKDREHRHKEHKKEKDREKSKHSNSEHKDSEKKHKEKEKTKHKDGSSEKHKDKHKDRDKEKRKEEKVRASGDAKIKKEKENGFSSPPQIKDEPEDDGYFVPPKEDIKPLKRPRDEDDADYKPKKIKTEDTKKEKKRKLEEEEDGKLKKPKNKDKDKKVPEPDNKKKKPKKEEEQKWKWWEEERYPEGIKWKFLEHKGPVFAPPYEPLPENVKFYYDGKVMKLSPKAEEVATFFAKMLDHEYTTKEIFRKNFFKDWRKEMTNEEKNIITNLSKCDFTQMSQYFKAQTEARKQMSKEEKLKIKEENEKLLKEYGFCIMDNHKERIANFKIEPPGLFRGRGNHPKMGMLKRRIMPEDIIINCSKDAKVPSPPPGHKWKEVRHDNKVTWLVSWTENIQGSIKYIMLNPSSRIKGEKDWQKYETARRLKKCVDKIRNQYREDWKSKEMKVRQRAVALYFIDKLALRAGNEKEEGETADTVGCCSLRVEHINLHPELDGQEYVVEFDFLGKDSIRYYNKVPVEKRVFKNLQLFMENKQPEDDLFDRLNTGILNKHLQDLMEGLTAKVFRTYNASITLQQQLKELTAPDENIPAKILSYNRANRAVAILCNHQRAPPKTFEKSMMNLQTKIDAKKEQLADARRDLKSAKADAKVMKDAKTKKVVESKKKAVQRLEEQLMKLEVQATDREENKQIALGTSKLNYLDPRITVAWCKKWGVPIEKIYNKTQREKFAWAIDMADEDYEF
The data set is described as follows: ELISA. A general note: ELISA stands for enzyme-linked immunosorbent assay.

The data set “native gel or EMSA” deals with the molecule itself. The data set is described as follows: native gel or EMSA. (A gel shift assay detects complexes by their altered migration in electrophoresis.)

Broadly, the stoichiometry N is the number of molecules, sites or subunits per partner or assembly.

B1: SV40 Large T-antigen (LT), wild type, purified from insect cells (natural protein)
chain: MDKVLNREESLQLMDLLGLERSAWGNIPLMRKAYLKKCKEFHPDKGGDEEKMKKMNTLYKKMEDGVKYAHQPDFGGFWDATEIPTYGTDEWEQWWNAFNEENLFCSEEMPSSDDEATADSQHSTPPKKKRKVEDPKDFPSELLSFLSHAVFSNRTLACFAIYTTKEKAALLYKKIMEKYSVTFISRHNSYNHNILFFLTPHRHRVSAINNYAQKLCTFSFLICKGVNKEYLMYSALTRDPFSVIEESLPGGLKEHDFNPEEAEETKQVSWKLVTEYAMETKCDDVLLLLGMYLEFQYSFEMCLKCIKKEQPSHYKYHEKHYANAAIFADSKNQKTICQQAVDTVLAKKRVDSLQLTREQMLTNRFNDLLDRMDIMFGSTGSADIEEWMAGVAWLHCLLPKMDSVVYDFLKCMVYNIPKKRYWLFKGPIDSGKTTLAAALLELCGGKALNVNLPLDRLNFELGVAIDQFLVVFEDVKGTGGESRDLPSGQGINNLDNLRDYLDGSVKVNLEKKHLNKRTQIFPPGIVTMNEYSVPKTLQARFVKQIDFRPKDYLKHCLERSEFLLEKRIIQSGIALLLMLIWYRPVAEFAQSIQSRIVEWKERLDKEFSLSVYQKMKFNVAMGIGVLDWLRNSDDDDEDSQENADKNEDGGEKNMEDSGHETGIDSQSQGSFQAPQSSQSVHDHNQPYHICRGFTCFKKPPTPPPEPET
As to B1, the binding result with human Topoisomerase I is “binds”.

B2: SV40 Large T-antigen T518D (phosphomimetic mutant), purified from insect cells (natural protein)
chain: MDKVLNREESLQLMDLLGLERSAWGNIPLMRKAYLKKCKEFHPDKGGDEEKMKKMNTLYKKMEDGVKYAHQPDFGGFWDATEIPTYGTDEWEQWWNAFNEENLFCSEEMPSSDDEATADSQHSTPPKKKRKVEDPKDFPSELLSFLSHAVFSNRTLACFAIYTTKEKAALLYKKIMEKYSVTFISRHNSYNHNILFFLTPHRHRVSAINNYAQKLCTFSFLICKGVNKEYLMYSALTRDPFSVIEESLPGGLKEHDFNPEEAEETKQVSWKLVTEYAMETKCDDVLLLLGMYLEFQYSFEMCLKCIKKEQPSHYKYHEKHYANAAIFADSKNQKTICQQAVDTVLAKKRVDSLQLTREQMLTNRFNDLLDRMDIMFGSTGSADIEEWMAGVAWLHCLLPKMDSVVYDFLKCMVYNIPKKRYWLFKGPIDSGKTTLAAALLELCGGKALNVNLPLDRLNFELGVAIDQFLVVFEDVKGTGGESRDLPSGQGINNLDNLRDYLDGSVKVNLEKKHLNKRDQIFPPGIVTMNEYSVPKTLQARFVKQIDFRPKDYLKHCLERSEFLLEKRIIQSGIALLLMLIWYRPVAEFAQSIQSRIVEWKERLDKEFSLSVYQKMKFNVAMGIGVLDWLRNSDDDDEDSQENADKNEDGGEKNMEDSGHETGIDSQSQGSFQAPQSSQSVHDHNQPYHICRGFTCFKKPPTPPPEPET
As to B2, in the data set “native gel or EMSA”, the “stoichiometry N” value amounted to 6. The binding result with human Topoisomerase I was “binds”.

Values taken from doi:10.1101/2023.09.29.560221 (bioRxiv, 2023).
